# Measurements published in the domain aggregation screens of Martell et al. (2025).
# Assay: soluble fraction after stress (log2 fold change); higher = more stays soluble; pooled small domains, quantitative proteomics
# Conditions: stress: 75 degC
# 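Further: 20 min heating vs room temperature control held 20 min.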
row,Sequence,soluble fraction (log2)
1,HMSEILQLINKIDKKLEKGYTFANISRNHYEKIYKEEILNLYKTSKLKGEAEDSIKEVLESLLGDLRKP,-0.833
2,HMSEISAEAGKRIRYFRKSRSMTLEELAAVIHKSKATLSKYETGEISIDLDTLYDLAVALQVRAEQLLPAS,-4.35
3,HMSEITMMQMEIPEGHNWENRLVKDVSMPTGSLAVMIKRHGETLIPGGDTRILAGDTIVLSVPAYESG,-0.112
4,HMSEIYVDDINRKILYLLSQGIKTKSLLEHIPLSMSGIEKRKKQLKMLFSVEDGKDETLLEMAKEKGF,-2
5,HMSEKAQSENEDLIKILALLIHAAKIDENYSEKEKKLIISFAEMSSNKKLDREQINSLVDKAEQYEK,-0.532
6,HMSEKLLTLNEISEKLRVSRHTVQAWVSPSSPNHRPEFSSLARHAGRKTVFLESDVDAWLAQRR,-1.07
7,HMSEKYPPIDWNNIKTGQSVLIKDINQVVSLTKLPDSKGFAEVQMGLIKTKIKAEKLAATDKKPNK,-0.326
8,HMSELDSYIGARLRMRRLMLGMSQEALGEKLSLTFQQIQKYEKGTNRVSASRLYELAQVLDVPVQFFFDGA,-2.98
9,HMSENDTILAKFASIINNKSLELVIFPDTAYLKGQVSTPEDKARAETVAQSLLGSKPLISLIEFE,-0.386
10,HMSENPLTSREIEIVQLLANGKTTKSIAEELHLSNGTIRNYVSIVLDKLNVSNRIEAIRKALDKGWL,-1.81
11,HMSEPQEISYSDFIEQVNRNEIRQVEFDGQHEYLTVIRKDTSRFKVIIPAPDPRLLDDLMEHDVEIVGKE,-0.123
12,HMSEQYEQIQLALKTLTQDEQDIVRLVVVEGASLRTAGKNLGVSAMTIQRRLKRALARLRDLLAS,-0.839
13,HMSESKYKMIKNWIKSKILDGTLVPNQKIYSESELMEIFDVSRHTVRLAIGELVSEGYLFKRQGTGTFVTQ,-2.82
14,HMSETTSRVLQLLGLLQARRVWTGQELADRLGVTGRSVRRDIERLRDLGYPVHASKGRDGGYQLGA,-1.61
15,HMSEYILATNDGEFLRITSYSKEEGGMLVWEKTSSIVSAEHKVIPYSQIINIKDRNGDVVWDKD,-0.988
16,HMSEYNPGIYRVTDPALNIRTGPGVEYPVVGVIKDQGSYTITEIRNKSWGRLLSGAGSTAIKHIVFT,0.214
17,HMSFEITGDELILRFVKDKGGATTEQIRKHWEASNRGGKSDNNLTNLVKSGKLLRSKDPNGPGSLYTAS,-0.0632
18,HMSFESMGLTPRQADVLTLLLQGKSNKDIARRLVLSVETVKDHVQAVLRALGVSSRTQAVLAVGQMTQQ,-0.584
19,HMSFGYFQLRAKDPQKLKSVLEKIPQIQSIKEEKGDLIGYLNADMEAEELSQKLAAAKIFVTHMAKKK,-0.583
20,HMSFISRMVVAVEDIALSTRPNSTPSGDKYVSKGTVLLMEKRENDWVEVRQPSSPLSGWAPKTSLLSV,-0.246
21,HMSFNLSETKKLILEEIQKGVSSVTQIAATAGISKGMTYNHLRELKLMGYIADGDSGYVITDAGKIAS,-0.448
22,HMSFRYLHVKRQLMSLIGTMNAHERLPSRTDLSETFQVARTTIERAISELIGEGWLYARDGSGTYVAER,-3.45
23,HMSFSTHHEYYIYNLAVDMRKGYDGLSGLVVNELGRQPWDGSVYVFFNTMRDKVKLLVWDTDGYVIYSKR,-0.279
24,HMSFTDLILKSANAIDEMGGIWENGKQILGEKAIAIHEEIVDNGLNPDKDGFYKLANGQMIQYG,0.0518
25,HMSFVEVTVSELKNYVNSHARIKLKSGKEFKGFILDANEEGVIIKVQLRGGTAESTISYNRIDRAAVF,-4.01
26,HMSGAERAAALLVALGPEVASEIMKFLDDESIQKLASEIAKIEVLSPQEKEDLIGQFLLELKKT,-0.419

row,Sequence,soluble fraction (log2)
1,HMSGAWEVGLLRQFTDWMGTQYNAYAGRNFDAITVAQVAEKNPELLTPFVESFFKERVEPALAAG,-1.08
2,HMSGEDYLERILMLKEKHGNVRAIDIANSMNFSKPSVSIALHKLSENGYVVIQNNGAIELTEKGLEVAT,-0.455
3,HMSGEIPFPPAFKPSADHIAIASEKGINIETELLNFRDYHQARGTKLIDWNSAFRVWLRNAR,-0.531
4,HMSGEITVPNLIGVEAIQAKTLLIQAGFLIKEFYDLDSTQPAGVVIRQAPEAGTTQTIGKSVTITINKQ,-1.25
5,HMSGENAVLTEGTMVTVRRGGETITATARKETVKQFLSRMDIIPGSREMVGIELMENSVMLTISD,-0.889
6,HMSGFPTDAQIVREIRNILPTLENPTPRMVRKALENTFEVDMGESKTKKYINNIIITEYEKWSSVQSIRE,-0.603
7,HMSGGNTSAFKGKLNYEYRGNDTIITGSTYPVKELIKKAGGRWDPGSSAWIIKGRHVSDNEIF,0.054
8,HMSGQKDVPDLYGMTVKQAKKEVEAAGFKLKEGKEVYSNDYSKGQIAEQDPESGSKAKKGSSITVHVSKG,0.0162
9,HMSGRIWTDNYGRTIEADVIKVNINRTVLLEFTDKKTKTVSFDTFISKDIQYLEYLLTRRNRGKL,-3.98
10,HMSGRVPTADDIAVGMKVYVPRLGGTGTVVTEPVRDKVVIQVGSLRLHAEVAELLLPDEHGRIQVPR,-0.844
11,HMSGTGSYVALLRDPQGNVGKVVVKGSKGEQVLSQPQQAARLDGATPSYEVTGRQIAEDFGRALAV,0.144
12,HMSGTYIATVEAGSLDIYKSMTSNETIGKASRGDVFQILEDMGSGYARVSYNDVEGYMSIKTGDASIEEL,0.113
13,HMSGVSESIEKKIQYLLLEKPLPLHDLIEAIEIGKEEDRLKVLRSLMDSDTVKIEDDLYHWNA,-0.133
14,HMSGYSTLFTRMSREDAQAVVSLLQDDGIEYRYNDDTGTVQVPSATVDQTRAKLVSAGYPRS,-0.268
15,HMSHANAALTPRARLRLAKLIVEEHWPVATAAKMFMVSPPTARKWATRFRAEGPAGMADRSSRP,-1.63
16,HMSHFRMLPSITEADAFLKSRSLPAGLEVREQVDAFLAQARQTLALAQEAPWLSKQEVLETLADEFVQTS,-0.652
17,HMSHFSERLKSLRQQSSITQAKLADDLNVTKSLISMYESGQRLPSFEMLETIADYFNVPLSSLV,-0.541
18,HMSHGFFTLQSDDLNLLRTVLEGHSSIGDIKIEGIQLVAYLKEPLNGAELNKILFEKGINLSYLVHRK,-2.9
19,HMSHGFVHLKGAVQHPGIYPVKENTRWDEVVKAAGGLTAAADIQQVNLAKVASDQESLYVPEKGET,0.149
20,HMSHGSIYFSGKTGLKGSVDINGTVNSINKKIFLKPGNYNFLIKADGYKNLKGSFQISKGDKKFVELVLIP,-2.1
21,HMSHGYVELKAENNDALISALENHTWFENIKLDPETNLVKAILTKPIEAENLNKMLFEKGIILSHLVKRK,-0.376
22,HMSHYDILEVDPKASATEIKQSFRKKSLQYHPDRNKSSDAHEYMTKITEAYNILGDKDKRRHYDMELKL,0.568
23,HMSHYEYKVGDRVNLLDYDDFGILYKEKDNFYNVVVYYNGEFVEVNVKRITLEVAAKELYPEGYDLSTLFV,-3.97
24,HMSIASASVKEKIRDIVSSEPPQKPFSDAKIAEILAEDGIAIARRTVAKYREEIGIPTKSLRKR,-0.0706
25,HMSIDNALLTLIGKTGTAQTVLRPSGKVVIGDEVYDAVTAGEFIDKGSAIVVTRVEATQLYVEASEA,-0.411
26,HMSIELEISADGNNYRVSGLSDGEDVRVYSVSGVQVFSGKAQGGEVVIPADNWNKGIYVISAGGSSVKVL,-0.594

row,Sequence,soluble fraction (log2)
1,HMSIGLEDLIEQKGVADTDLRPSGWINVGNQRIFVVTEGSYIDQNDNVIILSVDGNRVVVRKI,-1.2
2,HMSIGLEELVGSHGEAITDLRPAGQVSIAARRISAVSEGDFINKGDSVEVLSVEGYRVMVRKLET,-0.34
3,HMSIITLFQEINAAVAEATGGRVPESVVQNFILGKDVVIPEDVKEIIISKLKAFATDIEGMLEESGFD,-2.62
4,HMSILDEAEFKKIESALLDFITNNIFTVKELLQASRGIKQDKFWKVFQFLQSERKVVVNELGYIEL,-0.287
5,HMSILSIGLERGMKKGVAWGIAKSILDILEETGPVSEKTREMIVTETDAERLSAWVKKAARSNSEEDFLSK,-0.799
6,HMSILSRREHEIMQWVKGGKTNIEIAQILGISARTVRNHLQNVFRKLDVINRAQAVFEVERRR,-2.68
7,HMSIMNEQIREILNQQVTKTSKIQQLLLLGLTRRQVADLVTNGNYGFVQNVYRNMLDAGIFTP,-1.13
8,HMSIMNLSEKIVVLRKSNGMSQEELAEKLYVSRQAVSRWEMGTAVPDSTNILQLGKLFHVTTDYLLNDEYE,-3.36
9,HMSINQIADKGYITRLIDNNANIKDVLYYDASSRILAIEDPKYMFYLKNTDWNQFAKEMGFKLE,-0.794
10,HMSINTLEVHSLKALENLAESPLLISFSYENEEYNYRLASSDVSLLKKISSNYSDDSDIKGLRFIS,-0.893
11,HMSIQQEATGNRIRELLLNNGYTVKDIQEVMGFENPQAVYKWLSGKSLPNLDNLLILSKVLHTSIEDILV,-1.09
12,HMSISSIDFENLKSDELSDAQITQIYRQAQEQGLSIDELSSLAIARGMSPTEVAKLRSRFNSIP,0.0936
13,HMSIVVPDLRGKTLEEARAILKEADLDFEINDSTFSKTARPGTIRDVVPSPGSRVKAGRILFISINGF,-0.781
14,HMSIYQYFNISEINSIDDLKKQYFKLAKKYHPDAGGDKVSFQELQNEYEQLTKKILSGAELNADELKTE,-0.126
15,HMSKASLFFLFNHKDELYIVDNNHVQDVPKPRELIRRFSTIEQIREHALHLGLPIANDTARE,-3.31
16,HMSKEGLASLLEDINGLGAIRRKTLIDHFGSVAKIRGARPEEIAALPGMGRKIAEHILASLRED,-0.541
17,HMSKEKQILQLLQHGYSQRRIADTLSVSRNTVAKVAKAAIEHPVSSDSLDSIDELELHQKLFPEEVLI,-0.486
18,HMSKGKNEVIAYLKAHNDHRLTVAEILDGLKEEGISINRSTIYRNLDKLVENGDILAFKGKDSESAFYQYS,0.0611
19,HMSKHLWNKVLPKVTTANITNLINQAIRKGEWRMDNKGVVHIIWRYRGKIIEVTGYLKDKVFNVGNAWVR,0.226
20,HMSKITNALLMMKLLSNGKVYSVKELSEELGVTERMVRNYKEQLEMSGYIIESFKGPGGGYFINKN,-2.61
21,HMSKKAIVINLLKRPDGASLKDIMQATYWQAHSVRGFISGSLTKKMGLNVESFKRPDGERAYRIN,-2.47
22,HMSKLIDQELINFFKNQIESKSFRYGVSIEDSYEEIKSNQIKFYGEQEDKLKAIDNAFIELKRERAGIR,-0.168
23,HMSKNDLAGDEADVYKLLSVETGKPISDLVNRLPFGKSKTREILNTLAEKGFVYISGSGRGTKYHR,-0.296
24,HMSKNTFIGNIDDKELYVGSGRYGPFMLYDGKFTNITRYLSDESKELTDITIDDYSKIVNNARPK,-0.175
25,HMSKNVTMPNLVGYSMRQAKAELLSRGLHLGKLIYVNDIATNNVISQLYRNAEIEPGVKIESESYVDLVVG,-1.76
